In article PMC5114558 (2016):
Residue numbers refer to the chain shown, from its start. Numbers in names are those of the source. Where “and” joins values, the source holds several entries; their conditions need not be identical. Identical values can stand only once. Like-named read-outs stand apart in the source and are kept apart here. Blank lines part the entries; values can stand above or below the binder they belong to. Non-standard residues stand in square brackets, D forms with d. No end group written: not given here. Me2a = asymmetric dimethyl (on arginine); pT = C[C@@H](OP(=O)(O)O)[C@H](N)C(=O)O

T1: ING2-PHD
T1 chain: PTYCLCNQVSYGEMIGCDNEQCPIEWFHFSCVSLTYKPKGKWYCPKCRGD

T2: KDM4B-DTD N951G (Homo sapiens)
T2 chain: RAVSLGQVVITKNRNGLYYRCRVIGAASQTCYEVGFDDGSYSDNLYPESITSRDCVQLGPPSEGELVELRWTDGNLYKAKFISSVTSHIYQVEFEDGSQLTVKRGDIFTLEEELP

T3: KDM4B-DTD N951M (Homo sapiens)
T3 chain: T2 chain with G35M

T4: KDM4A-DTD N940A (human, UniProt O75164 895-1011, N940A)
T4 sequence: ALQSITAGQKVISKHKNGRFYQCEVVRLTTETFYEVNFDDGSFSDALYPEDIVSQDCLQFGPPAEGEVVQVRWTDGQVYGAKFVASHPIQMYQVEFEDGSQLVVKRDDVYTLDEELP

T5: KDM4A-DTD D945S (human, UniProt O75164 895-1011, D945S)
T5 sequence: T4 sequence with A46N, D51S

B1: KDM4C double tudor domain (KDM4C-DTD), HaloTag-tagged, wild type (domain or fragment)
chain: KVISVGQTVITKHRNTRYYSCRVMAVTSQTFYEVMFDDGSFSRDTFPEDIVSRDCLKLGPPAEGEVVQVKWPDGKLYGAKYFGSNIAHMYQVEFEDGSQIAMKREDIYTLDEELP
B2: KDM4B double tudor domain (KDM4B-DTD), HaloTag-tagged, wild type (domain or fragment)
chain: T2 chain with G35N
B3: KDM4A-DTD N931D (domain or fragment)
chain: T4 sequence with N37D, A46N
B4: KDM4A-DTD triple mutant N931D/D939R/D945R (DRR) (domain or fragment)
chain: T4 sequence with N37D, D45R, A46N, D51R
modifications: HaloTag-Alexa 660 ligand conjugated to the HaloTag in the far western
B5: KDM4A double tudor domain (KDM4A-DTD), HaloTag-tagged, wild type (domain or fragment)
chain: T4 sequence with A46N

Experiments:
Test in all cases: FP
[1] = target: B3
[2] = target: B1
[3] = target: B2
[4] = target: T1, ING2-PHD
[5] = target: KDM4B-DTD N960A (human, UniProt O94953 917-1031, N960A)
[6] = target: KDM4B-DTD S965D (human, UniProt O94953 917-1031, S965D)
[7] = target: T2, KDM4B-DTD N951G
[8] = target: T3, KDM4B-DTD N951M
[9] = target: B1
[10] = target: H3K27me3
[11] = target: H3K9me3
[12] = target: B2
[13] = target: B4
[14] = target: B5
[15] = target: T4, KDM4A-DTD N940A
[16] = target: T5, KDM4A-DTD D945S
[17] = target: H3K9me3; remark: listed apart in the source
[18] = target: H3K27me3; remark: listed apart in the source
[19] = target: H3K27me3; remark: listed apart in the source
[20] = target: H3T3phK4me3 peptide (UniProt P68431, phosphothreonine at T3; trimethyl-lysine at K4)

Chain of KDM4B-DTD S965D (O94953 917-1031 S965D): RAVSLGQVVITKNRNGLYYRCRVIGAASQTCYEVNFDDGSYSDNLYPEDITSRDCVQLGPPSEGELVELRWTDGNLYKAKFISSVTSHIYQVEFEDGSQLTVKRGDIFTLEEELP
Chain of KDM4B-DTD N960A (O94953 917-1031 N960A): as the sequence (O94953 917-1031 S965D) above, with N44A, D49S counted along it

Kd [1]: 2.6 µM
Kd [2]: 180 µM
Kd [3]: 35.3 µM
Binder: RKQLATK(Me2)AARKSAPAT (also: fluorescein label, end not given here) [H3K23me2 peptide (dimethylated H3K23), fluorescein-labelled]

Kd [4]: 257 µM
Kd [5]: 107 µM
Kd [6]: 16.4 µM
Kd [7]: 32.6 µM
Kd [8]: 41.4 µM
Kd [9]: 73.6 µM
Binder: RKQLATK(Me3)AARKSAPAT (also: fluorescein label, end not given here) [H3 (17-32) K23me3 peptide, fluorescein-labelled]

Binder: B1
Kd [10]: 104 µM

Binder: B2
Kd [11]: 800 µM
Kd [10]: 140 µM

Kd [1]: 6 µM
Kd [2]: 43.7 µM
Kd [3]: 53.1 µM
Binder: RKQLATK(Me3)AAR(Me2a)KSAPAT (also: fluorescein label, end not given here) [H3K23me3R26me2a peptide, fluorescein-labelled]

Kd [1]: 31.1 µM
Kd [2]: 520 µM
Kd [3]: 155 µM
Binder: RKQLATK(Me)AARKSAPAT (also: fluorescein label, end not given here) [H3K23me1 peptide (monomethylated H3K23), fluorescein-labelled]

Kd [1]: 18.7 µM
Kd [2]: 507 µM
Kd [3]: 130 µM and 259 µM
Binder: RKQLA[pT]K(Me3)AARKSAPAT (also: fluorescein label, end not given here) [H3T22phK23me3 peptide, fluorescein-labelled]

Kd [9]: 58.7 µM
Kd [12]: 60 µM
Binder: AKRHRK(Me3)VLRDN (also: fluorescein label, end not given here) [H4K20me3 peptide, fluorescein-labelled]

Kd [13]: 158 µM
Kd [9]: 166 µM
Kd [12]: 165 µM
Kd [14]: 108 µM
Binder: ARKSTGGK(Me3)APRKQLATK (also: fluorescein label, end not given here) [H3K14me3 peptide, fluorescein-labelled]

Kd [1]: 2.7 µM
Kd [4]: 5.8 µM
Kd [13]: 370 µM
Kd [15]: 74.1 µM
Kd [16]: 151 µM
Kd [14]: 2.7 µM
Binder: ARTK(Me3)QTARKSTGGK (also: fluorescein label, end not given here) [H3K4me3 peptide, fluorescein-labelled]

Kd [1]: 27.7 µM
Kd [2]: 72.5 µM
Kd [3]: 180 µM
Binder: RKQLATK(Me3)AAAKSAPAT (also: fluorescein label, end not given here) [H3K23me3R26A peptide, fluorescein-labelled]

Binder: B3
Kd [17]: 83.3 µM
Kd [18]: 98.6 µM

Binder: B4
Kd [19]: 570 µM

Binder: B5
Kd [20]: 122 µM
Kd [10]: 122 µM
